Measured values as given in the RNAGym collection of RNA variant scans (doi:10.1073/pnas.2313332121).
Fewer inactive variants are shown than the library holds.

B1: TPR 5TU (parent)
chain: GGAUCUUCUCGAUCUAACAAAAAAGACAAAUCUGCCACAAAGCUUGAGAGCAUCUUCGGAUGCAGAGGCGGCAGCCUUCGGUGGCGCGAUAGCGCCAACGUUCUCAACUAUGACACGCAAAACGCGUGCUCCGUUGAAUGGAGUUUAUCAUG

Variants of: B1
Assay: polymerase ribozyme fitness, log enrichment relative to wild type (log ratio); higher = more active; in vitro selection for triplet polymerase activity
How it was run: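 The heterodimeric triplet polymerase ribozyme's subunits were each mutagenized into PCR-built libraries and transcribed. Every library was selected once, in triplicate, by annealing with a biotinylated primer, the partner subunit and triplets, incubating frozen at −7 °C, gel-excising extended constructs, capturing on streptavidin beads and running RT-PCR. Input and output libraries were Illumina-sequenced, with genotypes kept only at ≥10 input reads and ≥1 read per output. Fitness, from inverse-variance-weighted replicate averages, is the base-2 logarithm of genotype enrichment over wild-type enrichment.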
In the case of A41U U61A G68U A107C U145G, the “polymerase ribozyme fitness (log ratio)” value is reported as ≤ -4.2. With A41C U44A G84A U146G the “polymerase ribozyme fitness (log ratio)” value was ≤ -4.2. With A41G C85A U101G the “polymerase ribozyme fitness (log ratio)” value was -1.82. In the case of A41U A49G A52C G84A C103G A115U, the “polymerase ribozyme fitness (log ratio)” value is reported as ≤ -4.2. For G42A A73G C87U, the “polymerase ribozyme fitness (log ratio)” value was ≤ -4.2. For A41C G80A C87A, the “polymerase ribozyme fitness (log ratio)” value was ≤ -4.2. In the case of G42C A47C U53A U82C G84A A122G A138U G143C, the “polymerase ribozyme fitness (log ratio)” value is reported as ≤ -4.2. For A41G A49U G59U C85A C105U A106G A121U U134C, the “polymerase ribozyme fitness (log ratio)” value was ≤ -4.2. In the case of G42A A49C C69G A137U, the “polymerase ribozyme fitness (log ratio)” value is reported as ≤ -4.2. In the case of A41C C57G, the “polymerase ribozyme fitness (log ratio)” value is reported as -1.09. In the case of G42C U44A C54G A91U C99U G143C U145C, the “polymerase ribozyme fitness (log ratio)” value is reported as ≤ -4.2. For A41C C63G A64C U111C, the “polymerase ribozyme fitness (log ratio)” value was ≤ -4.2. With A41U G50C C76U C93G A138G A150U the “polymerase ribozyme fitness (log ratio)” value was ≤ -4.2. In the case of A41C U55A G133A, the “polymerase ribozyme fitness (log ratio)” value is reported as ≤ -4.2. For G42C U44A A52G G70U G83C, the “polymerase ribozyme fitness (log ratio)” value was ≤ -4.2. In the case of A41C G67A G81U G94C A107C, the “polymerase ribozyme fitness (log ratio)” value is reported as ≤ -4.2. With A41U G74A C103U C114U U134C the “polymerase ribozyme fitness (log ratio)” value was ≤ -4.2. For A41U C54A G59A C85G, the “polymerase ribozyme fitness (log ratio)” value was -3.6. With A41G U55A C93U the “polymerase ribozyme fitness (log ratio)” value was -0.68. In the case of G42A G86A C103U A119C, the “polymerase ribozyme fitness (log ratio)” value is reported as ≤ -4.2. With A41G C76U G86A G117A the “polymerase ribozyme fitness (log ratio)” value was -0.646. With A41G G48A C87A U148C the “polymerase ribozyme fitness (log ratio)” value was ≤ -4.2. In the case of A41C G50A A52C C54U U56A C75U C87U U146G A150G, the “polymerase ribozyme fitness (log ratio)” value is reported as ≤ -4.2. With A41C C85U A122U G126C the “polymerase ribozyme fitness (log ratio)” value was -0.655. In the case of G42A G62C C116G C125U A142U A150C, the “polymerase ribozyme fitness (log ratio)” value is reported as ≤ -4.2. For A41G A47U C51U A52C G88A G136U, the “polymerase ribozyme fitness (log ratio)” value was ≤ -4.2. With G42A G59U C76U G88U C103G G152U the “polymerase ribozyme fitness (log ratio)” value was ≤ -4.2. For A41C C57U A89U G92C C116G C125A, the “polymerase ribozyme fitness (log ratio)” value was ≤ -4.2. For A41C C57A C87U C114G, the “polymerase ribozyme fitness (log ratio)” value was -3.91. With A41C C93U C105U the “polymerase ribozyme fitness (log ratio)” value was -1.68. In the case of G42C C72U, the “polymerase ribozyme fitness (log ratio)” value is reported as ≤ -4.2. For A41G G84U, the “polymerase ribozyme fitness (log ratio)” value was -0.79. In the case of A41U C54A C79U G88C U148C, the “polymerase ribozyme fitness (log ratio)” value is reported as ≤ -4.2. With G42C U45A A52C U77G C85A C116G the “polymerase ribozyme fitness (log ratio)” value was ≤ -4.2. With A41U U82G G86U A97U G124C the “polymerase ribozyme fitness (log ratio)” value was -3.18. With A41C G50A G74A U82G C95U A107C the “polymerase ribozyme fitness (log ratio)” value was ≤ -4.2. With A41U C54G G88C U130A the “polymerase ribozyme fitness (log ratio)” value was ≤ -4.2. For A41U U82A A142C, the “polymerase ribozyme fitness (log ratio)” value was -2.88. For A41C C57G G136U, the “polymerase ribozyme fitness (log ratio)” value was -3.64. In the case of A41G G42A G48C C93A A106C U109C A137C, the “polymerase ribozyme fitness (log ratio)” value is reported as ≤ -4.2. In the case of G42C C54G A91U G124A C131G, the “polymerase ribozyme fitness (log ratio)” value is reported as ≤ -4.2. With A41G U44A U61C C75U A142C the “polymerase ribozyme fitness (log ratio)” value was ≤ -4.2. With G42C C95A A142C the “polymerase ribozyme fitness (log ratio)” value was ≤ -4.2. In the case of A41C U45A G68A C85A C118G C129U U144C U146A, the “polymerase ribozyme fitness (log ratio)” value is reported as ≤ -4.2. For A41C G80C, the “polymerase ribozyme fitness (log ratio)” value was -4.11. In the case of A41G U78C C116G, the “polymerase ribozyme fitness (log ratio)” value is reported as 0.0342. With A41G C54G G117U G124C the “polymerase ribozyme fitness (log ratio)” value was -1.19. In the case of G42C A60G C75G C105U A122G, the “polymerase ribozyme fitness (log ratio)” value is reported as -4.18. In the case of A41C U90G A113C, the “polymerase ribozyme fitness (log ratio)” value is reported as ≤ -4.2. For A41C G136A, the “polymerase ribozyme fitness (log ratio)” value was 0.215. With A41U C95U C99U G141C the “polymerase ribozyme fitness (log ratio)” value was -2.51. With A41C G59C U82C G86C C108G G141U the “polymerase ribozyme fitness (log ratio)” value was ≤ -4.2. For A41C C43U C63U G88U, the “polymerase ribozyme fitness (log ratio)” value was ≤ -4.2. In the case of A41C U53G, the “polymerase ribozyme fitness (log ratio)” value is reported as -3.43. For A41U U56A C85A, the “polymerase ribozyme fitness (log ratio)” value was -2.38. For A41G A98U C103G A138C, the “polymerase ribozyme fitness (log ratio)” value was ≤ -4.2. For G42C C99U, the “polymerase ribozyme fitness (log ratio)” value was ≤ -4.2. For G42C U45A G48U A49C C75U C118G U144C, the “polymerase ribozyme fitness (log ratio)” value was ≤ -4.2. With A41U G59A A73G A89U C93G A107G the “polymerase ribozyme fitness (log ratio)” value was ≤ -4.2. With A41G G94U C114U A150G the “polymerase ribozyme fitness (log ratio)” value was -3.98. In the case of A41G C51A G83A, the “polymerase ribozyme fitness (log ratio)” value is reported as -2.57. In the case of A41C U134G, the “polymerase ribozyme fitness (log ratio)” value is reported as -2.46. With A41C C75U C87A U148A the “polymerase ribozyme fitness (log ratio)” value was ≤ -4.2. With A41U G50U A64U C118G A150C the “polymerase ribozyme fitness (log ratio)” value was ≤ -4.2. For G42A G86A C118A, the “polymerase ribozyme fitness (log ratio)” value was ≤ -4.2. For A41U G50A, the “polymerase ribozyme fitness (log ratio)” value was -2.68. In the case of A41U G83C G126A, the “polymerase ribozyme fitness (log ratio)” value is reported as -2.3. For A41C G50C U55A C85G, the “polymerase ribozyme fitness (log ratio)” value was ≤ -4.2. For A41G G50C C85U C87A C103U C105G A115U, the “polymerase ribozyme fitness (log ratio)” value was ≤ -4.2. In the case of G42A C54G U82C G94U, the “polymerase ribozyme fitness (log ratio)” value is reported as ≤ -4.2. In the case of G42A G58U A64G G68U G92C C95U C129U U134C, the “polymerase ribozyme fitness (log ratio)” value is reported as ≤ -4.2. With A41U C63U U102C the “polymerase ribozyme fitness (log ratio)” value was -3.6. For A41C U135G, the “polymerase ribozyme fitness (log ratio)” value was -3.54. For A41C G48C C57U G84A, the “polymerase ribozyme fitness (log ratio)” value was -2. In the case of A41C C54A U56A A73U A89U U101G A115C C129G U134A, the “polymerase ribozyme fitness (log ratio)” value is reported as ≤ -4.2. With A41C U53C C125G U144A the “polymerase ribozyme fitness (log ratio)” value was -2.53. With G42A G48U A52U C75A U90C the “polymerase ribozyme fitness (log ratio)” value was ≤ -4.2. In the case of A41G G83C G143C, the “polymerase ribozyme fitness (log ratio)” value is reported as -3.18. With A41G G58C U61C U82G C87G U104G C118G G141U the “polymerase ribozyme fitness (log ratio)” value was ≤ -4.2. For A41U A52G U55A C69A G86U, the “polymerase ribozyme fitness (log ratio)” value was -3.96. With A41C G94A U104G A113C C116G the “polymerase ribozyme fitness (log ratio)” value was ≤ -4.2. With G42A C51G C75G C99U the “polymerase ribozyme fitness (log ratio)” value was ≤ -4.2. With A41C C105A the “polymerase ribozyme fitness (log ratio)” value was -2.1. For G42A U55A C96A, the “polymerase ribozyme fitness (log ratio)” value was -4.06.
